Patent publication US10695406B2, “Modulation of cellular stress using a B-cell oxidative and/or endoplasmic reticulum stress inhibitor and a targeting agent” (THE UNIVERSITY OF QUEENSLAND, priority 2014, dated 2020)

Assays:
[1] = test system: pneumovirus of mice (PVM); experiment: Pneumovirus (PVM) infection of neonatal mice with IL-22 administration; type: in vivo, C57BL/6 mice
Method: Total RNA was extracted from animal tissues by homogenizing in TRIzol and separated via chloroform phase separation. RNA was purified using High Pure RNA isolation kit (ROCHE) as per the manufacturer's instructions, including DNASE treatment. Extraction purity was assessed by NANODROP, ensuring the expected A260/280 value for RNA between 1.8 and 2.0. Reverse transcription was performed on 1 μg of RNA using 5×ISCRIPT reaction mix and ISCRIPT reverse transcriptase (BIORAD). Quantitative, reverse transcription polymerase chain reaction (qRT-PCR) was performed to quantify expression of PVM gene Src homology (SH), using specific exon-spanning primer sequences and amplified with SYBR Premix Ex TAQ II polymerase (TAKARA). All gene expression was quantified in duplicate using a Viia 7 Real Time PCR System (APPLIED BIOSYSTEMS) and relative fold changes were calculated using the 2^−ΔΔCt method, comparing to the mean of naïve uninfected mice after normalizing to the β-actin housekeeping gene ACTB.
Five-day old neonatal C57BL/6 mice were administered intraperitoneal (i.p.) injections of either recombinant mouse IL-22 (rmIL-22) (20 ng/g every three days) [R&D Systems, #582-ML/CF], or an irrelevant IgG1 mock treatment control (12.5 μg/mouse, weekly) [Lilly Pharmaceuticals, LSN2404993]. […]
Paraffin embedded left lobes were sectioned onto Superfrost plus slides. […] This scoring system assessed inflammation in the small airspaces, peribronchiolar interstitial, alveolar interstitial and injury in the airway epithelium. The degree of lung injury and inflammation was scored blindly.
Cells infected by PVM were visualized by immunohistochemistry using rabbit anti-mouse PVM antibody (polyclonal at 1:8000) (ALPHA DIAGNOSTIC, PVMNP14-S). […] PVM infection was quantified by counting number of infected cells in 4-5 bronchioles per mouse and expressed as the number of infected cells per length of bronchiole epithelium. All sections were visualized on a VS120-L100 slide scanner microscope (OLYMPUS) and analyzed using OlyVIA v2.4 (OLYMPUS) and IMAGEJ v1.45s.

Human LS174T cells = experiment: Oxidative stress (nitrite, Griess assay) in LS174T cells with 0.5 mM palmitate; type: cell-based; conditions: human LS174T cells, 0.5 mM palmitate
Method: Cell culture: Murine MIN6N8 cells were tested negative for mycoplasma. Cells were routinely cultured in phenol-red free DMEM (Life Technologies) containing 25 mM glucose (3.4 g/L sodium bicarbonate, 50 U/mL penicillin and streptomycin, 71.5 μM β-mercaptoethanol and 10% heat inactivated fetal bovine serum) and transferred to DMEM as above with 5.5 mM glucose 48 h prior to experimentation. Human LS174T cells were cultured in DMEM containing 10% heat-inactivated fetal bovine serum, 50 U mL^−1 penicillin and streptomycin.
The Griess Reagent Kit for Nitrite Determination was performed according to the manufacturer's instructions (Molecular Probes) to assess the intracellular levels of nitrite (the stable metabolite of nitric oxide) using lysates of β-cells prepared in RIPA buffer (150 mM NaCl, 1% NP40, 0.5% sodium deoxycholate, 0.1% SDS, 50 mM Tris, pH 7.5).

MIN6N8 cells = experiment: Oxidative stress gene expression (RT2 Profiler PCR array, qRT-PCR) in MIN6N8 cells; type: cell-based, murine; conditions: non-stressed β-cells, 50 ng/mL
Method: Tissue samples were snap-frozen, and homogenized in TRIZOL using FASTPREP (MP BIOMEDICAL). RNA was isolated using High Pure RNA isolation kit (ROCHE), followed by cDNA synthesis using iScript (BIORAD) containing oligo(dT) and random hexamers. QPCR SYBR Green (INVITROGEN) was used for quantitative PCR using a HT7900 (ABI SYSTEMS). RoX was used as a normalization reference. Results were analyzed using SDS software (version 2.3) (ABI SYSTEMS). Primer efficiencies were determined using cDNA dilutions and primer dilutions for the genes of interest. All the data was normalized against the housekeeping gene, Gapdh, and expressed as a fold difference to the mean of relevant control samples.
cDNA from MIN6N8 cells treated with DMSO or 50 ng/mL IL-22 was compared using the oxidative stress RT^2 Profiler PCR Array (QIAGEN, PAMM-065Z). Data were analyzed using RT^2 Profiler PCR Array data analysis software.
Experiments to assess ER and/or oxidative stress, and methods of qRT-PCT and/or quantifying gene expression were performed as described for Example 1. Xbp1 splicing is assessed by qRT-PCR, with normalization versus Gapdh, and expression presented as fold of vehicle-treated control cells.

Substance: IL-22: interleukin-22; recombinant murine IL-22 (R&D SYSTEMS) in the mouse experiments
- mice that died between days 5 and 6 post infection ([1]; 20 ng/g i.p. every three days, 100 PFU PVM): 7/9
- increase of PVM gene expression (PCR) ([1]; 5 days post infection): 2.2 fold
- lung injury score, times higher ([1]; 5 days post infection): 1.7 times
- fold higher concentrations required for the same effect as human recombinant IL-22 in suppressing oxidative stress (nitrite) (Human LS174T cells): ~64 fold
- expression of antioxidant genes Gpx5, Prdx5, Sod2 (also Ptgs1, Ptgs2, Cyba) (MIN6N8 cells): upregulated the antioxidant genes
- expression of oxidative stress inducing genes Nos2, Hsp90ab1, Fth1 (MIN6N8 cells): down-regulates three key oxidative stress inducing genes
